Measured values reported in PMC4344507, “Structural and functional characterization of a cell cycle associated HDAC1/2 complex reveals the structural basis for complex assembly and nucleosome targeting” (Nucleic Acids Research, 2015).

Molecular target: the molecule itself
Test: crystal structure; DNTTIP1 (56–147), hanging drops at 22°C, 100 mM sodium acetate pH 4.6, 14% propan-2-ol; MAD phasing with SeMet protein; P212121

B1: Human DNTTIP1 (56–147) (domain or fragment, UniProt Q9H147 56-147, looked up)
chain: MTTSFTDPAISMDLLRAVLQPSINEEIQTVFNKYMKFFQKAALNVRDNVGEEVDAEQLIQEACRSCLEQAKLLFSDGEKVIPRLTHELPGIK
notes: DNTTIP1, human, residues 56-147; Native and selenomethionine substituted protein were both crystallized; six molecules (three dimers) in the asymmetric unit; also called DD; N-terminal dimerization domain; source: E. coli Rosetta-pLysS or B834(DE3), purified (Ni-NTA, Resource Q, Superdex S75)
stoichiometry N: 2
